Results from the NTF2 design screens of Basanta et al. (2020).

test: protease stability score; higher = more stable; yeast display proteolysis, trypsin and chymotrypsin;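 also: relative to predicted unfolded state with 0 unfolded-like and 1 meaning tenfold more protease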

Sequence	protease stability score
DDLEEEVEHFFELFWDDLLTGDEHSLTRQLDPHARFEYGDKVWHGREVYRQFMTQADHRHVEIKHTRVVNGRVEMNIEVRLHINGRRIESTVHIISTKINGQWRLESQHVE	-0.081
DDEEHDARRAVELHNEIERTGDEHEMHRFADPDVRIFIGDKELHGRETWSKYLSHVLERLGINHLHITIEHLHLQGNKMRLHGTIRMKIGDKRYEIHVEVYITKINGRWHLHTIRND	0.363
DDIEETFRHYLDQWIRDLRTGDEEALYRLADPNARHKINGQHLHGRELHDHEFNRIKNLKVDFVTRDIRIIGDKLIIHGEMIIRINGRQISIDTEIYLRKIDGRWFVEQVNVG	0.305
EEEEESVQRAMERILHALQTGDWHTLSRMADPHVKLLVNGVELHGMEKIEEFLKKLLEELGVDKIDVRLHDFHTFNGVVHVDVRSHFNGRTHREEWVLLKVNGRWSLKEVRTE	1.44
SEDDERMERLTRILLEALETGDEDALRELIDPNARVDVNGVRDHGWKEVRKLLKELGVDHIKIHDHHIQGEKSRIDGEIHFNGKSERVTILWIMINGRVKFMSVKHT	1.79
TELEHKAIEVVEAVFRNLHTGDESLLQELFDPNTKSLIDGVSVVGMHEIYKTIKHLRIEFESIEVHHITNVNGVLLLDVTLRERYRINGVEDEKQTRVHIIVRKIDGRWHLEHVRFH	1.48
TEEHKFVKDFFIHMIRAWITGDEKELHRLFDPHTKVRIGDYVSHGMERTLEIWHKLWKELGFKHLEVREVRAQGDKSHTDVVYHVDGREKKVHIELEVFNGKATHLELDEK	0.519
TEYEHLMEYIVRRFLEVLLTGDERELDRLADPHVIHHMKQGDKSWSLHGMELLSEVSRHWRDEIRIKRVEIHDLKNIGNWSDMYSTVHLRYNGREEVVEVRLHIDVYNGRVREVEIRIH	1.12
SEDHELLKRELETFIKHLETGDEDILRRLADPHVRLEYNGKEFHGRDRIVEEWVRIAREIRIKVEIHHITYIGDKLEVDTILKIEQGDKRTEFRIEIFIQKVNGQWLLKEIKIK	1.44
DEKDELMERIARLMMEYLDTGDEENLNKLADPNVKIDIRIGDKVIDDHGMENLLHRLRHIRSNLRVHNFHAQGDFVKIDTRVTFHVNGQDIHHTVEVRLFIVNGKIHRIEFIFR	2.6
DEEHHLAKELVRLLQEALSTGDEDEVKRLIDPDYRLIIGEFIFHGREDLERWLHHARVSVKDSHLRHVKVQGDKVEINGERNLIVIIDGKKIERKHRLHLIIIKVDGRWFMESEKYD	1.01
RDEESHLKHLAERIMKSWETGDEHTLRHLFDPNTRSHVEVGDKRWSFIGMENFDRWFRELHEEMGANHTTVHDTKIQGNKLTMDTRLLVGDKEIRTRLIFHIVDGRITHIIIKLE	1.31
EESEKSAEDATRLIIHMLETGDERLMKHLMDPDVRIEIGEYISIGRENVEELFREWRSKLGIKHIEVKRVRIEVQGNKVHIEMDTRLIVGDKEEETILRVDVVKINGRWYIKSMRLEIR	1.95
DEDHRDAIFILRLFLHATETGDEDSLETLMDPHVKLEINGVRIHGRETTYILMRHWRFRIEHLEIRNFDVFNGRLELIGHRHTTINIDGREERHTVRLEVHIWKINGQWLVQHIHIH	2.91
DDMQEIVLRIAEELIHRETTGDEEFIKRLLDPRVRLEINGVDSIGMEEFWRFLFEEEHKLGVDHVRFDIKHIRVVDGRAHSIGILNLNINGKEHRFDVRIDIVVIDGRVREVRIEIR	2.51
DDESEHSMKVFRFWAEARETGDEDTLTRLLDPHARLIQGDKHIIGREEWTRIIKERREQYGVKHIHFHIQDMRIFNGRVHLKVHYEIKFDGQSVTIDSEIIITKVDGRWYFESETKR	1.11
DERKEYVEILVRILIELFLTGDWEHMLRLADPNMRFRIGDKETHGMEEAYKLMEELKEEIRIHEVRLTHIRVYGDFADTETRVHVEVGDKIVDYDMRLHLVVVNGQLRHITIEIE	0.731
SEEEHVAKKLSDLILHAWRTGDEDQLSRLMDPHVRMIIGDKHLHGREEVSRWLHDWRRQVDHVEFHVKRFHVQGNKYTNDGHFVVHQGDKETRTDVEIILIVVDGKIHEIRIIIR	2.17

Sequence	protease stability score
THEEHFDERVARHLHENFLTGNEDIFEHLADPHTRIIIVQGDKMIHFHGWEWFAMKMLEDLHRIKGIRITLRHINIQGDKWILEMKVDIGDKELETEIIIHVINGKIESVRIIIR	1.35
DEDEEEALDFMRLLVESLQTGDEELISRMADPNVLLIVNGVEHVGREFYVKWVKHLVERVDHMEIRLKRIEIYDGRAHLDTEVIFRFNGRELRKKTHLIIEKVDGRWILKSVIVE	2.35
SEDEKLAHLVTELMTHSDRTGDERILEHLLDPNTRVIINGVSYHGMEAYRHMVRHIRFHNWEIHDVDSVNGQVHVDSRAEGNIDGVRDILNTWIISDKYDGRWIISEIEII	0.53
NEEEEEIKTLSEEILRAWMTGDFDHLRDMMDPNTKLDINGKEVHGREILINLLRKIMEDLGVKHIHIRHKEHQGNWTHLDERQIVGDKRINVHYIWVVVDGRIHSIRIEMR	1.16
SELDHAAEHLYRLFYHLERTGDEETLMDNMDPNARNEQGEFEYHGREFIEWVSEHLGINVIRVKRVDLRVINGRMILDIDYRVHIGDKTIQRHIHVVINKVNGKWIVEKLRIEWR	0.79
DEIKTELEKWLREFIRDMRTGDEDTLRQQADPNMRLDVNGQEIIGWDRILREEIRLRHDLGLTQIHVTVKDHRIQGEKIHNRGEIIYGEFRLDTILIVKKVDGRWRATDMVVV	1.17
DREKKEAEQLIRLINRYIQTGDEHSLSRLMDPHVLLQVGDKKDIGWEIIINKIKEMWEKFKGARFNLEMRDIHLQGDFAEIDVEFEILVNGQFDTLKTRFIIFKIDGRWVIRSLSLE	2.33
SEEEKAIIDLFKLWIHAFVTGDEEKLSELMDPRVRLTVGDKHLHGMEIVVEWYRRLRDKIKNLQFRSFEIEDFRIVNGRVELEAVIHIHFNGQMRTIEVRFILEKVDGRWFLKSVEEK	2.57
DEEKEDFHHAVELVLRVIKTGDEHTARELMDPRVRIDIDGQDFHGWQHIVHFVKHWRIERYSLKYVEYIDGRIHNTVLLDITVDGQRRNLEVYIIFLKYNGRWILTEVILR	1.84
REEEEESQKATEHQLHSLRTGDWRSIERLLDPNTRMEINGVDSVGREYVLELFRRWLEEAGINHIELKSYEVFNGKLEIHSEVHYDGRTIKVINIVIKVNGRWLLHHVHIEDL	0.561
SEEEELHDEHLKKIYTALLTGDFDTFRNMVDPHVRLDWNGVRLHGREVVVRTMIELGADHIEIKEVSFQGDKVDLHFREKVNGKEFRVRIEKQKFNGQWSISSEHQR	1.14
HDRNEIIREALRILIHSILTGDEDHLREFADPHVKSDINGQEFHGREVFFMWLLHMRIQTVTIKHVDVQGEKARVYSSIHGDVDGQRTEYHTEIFSQKVNGRWIIRTIRVE	1.16
SEVDEQAEHMSRLYLKLIKTGDEEHLMHLADPHTRLDINGKTFIGMEVVHEFNEKERRRVPNMRIHEKSVKVEVFDGRAFTEIHGEWHFDGVTQEIRIEVRIDKVNGRWTIRSVHVEIR	0.704
SDEQRDVKFMLDQWLRSIETGNEDEIRHLVDPNVRSDINGQTHHGRDEYVRHMVEIRVILESIELHDLRWQGDKIDVDAIVQGTIIVNGRKTRFIERVHLHSVKVNGRWEIKEYRVV	1.42
TESEEDAEWAFRILEHVLETGDEHLLRVLLDPHVRVHIDGRNIHGRENVIRELTEIRIHVEMHLEHVDLQGDKMHIDLRVHIIIIFNGQEKRRTHRMEMIVFKYDGKWFINEIHFH	1.37
HEDEEEMKKFIHRWENDLRTGDEESHRRLADPNTLLVVNGRRVHGMEAVLHIVREMRLHEVYIDDIRIINGRAHTELTVKGEIDGVKHWSHTHIHVTKVNGQWHIDTIRIL	0.663
DHLRHTVERMVLHLLRLSLTGDEEEWLKLLDPNTKLEVGDKTRHGREDVAQFLLEMRVERVEVSDYRFNNVNGVVRVEIDGHFDFEYDGKREDSRVEIYLLFEKVNGKWHLKFVKVVFK	1.69
DDRERERHRFLRELHESLETGDERELTRMLDPHARWVVGDKQHHGRETLTKFVSEVALRADHFHIEISRVREQGEFIDIDVRVILIIGDKVITIDQRLINLKVDGRWFLHERIVH	1.05
